Results published in IntAct's records for PubMed 34029587.

Columns and labels:
anm1_human PRMT1 = anm1_human PRMT1 (UniProt Q99873)
G3BP1 = G3BP1 (UniProt Q13283)
UniProt Q13283, sequence (Q13283 whole entry, looked up): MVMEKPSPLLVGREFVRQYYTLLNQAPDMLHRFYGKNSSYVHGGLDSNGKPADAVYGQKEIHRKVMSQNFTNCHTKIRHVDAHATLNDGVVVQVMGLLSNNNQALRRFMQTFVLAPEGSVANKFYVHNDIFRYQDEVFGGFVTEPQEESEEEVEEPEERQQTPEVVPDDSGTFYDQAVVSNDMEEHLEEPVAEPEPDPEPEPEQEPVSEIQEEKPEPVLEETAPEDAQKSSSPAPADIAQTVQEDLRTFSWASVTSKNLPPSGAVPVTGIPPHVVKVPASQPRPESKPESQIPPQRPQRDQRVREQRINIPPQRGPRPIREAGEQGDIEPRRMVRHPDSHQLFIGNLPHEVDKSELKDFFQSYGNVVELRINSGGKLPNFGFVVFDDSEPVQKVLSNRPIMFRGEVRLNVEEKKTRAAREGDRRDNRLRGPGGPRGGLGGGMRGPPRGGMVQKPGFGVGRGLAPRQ

UniProt Q99873, sequence (Q99873 whole entry, looked up): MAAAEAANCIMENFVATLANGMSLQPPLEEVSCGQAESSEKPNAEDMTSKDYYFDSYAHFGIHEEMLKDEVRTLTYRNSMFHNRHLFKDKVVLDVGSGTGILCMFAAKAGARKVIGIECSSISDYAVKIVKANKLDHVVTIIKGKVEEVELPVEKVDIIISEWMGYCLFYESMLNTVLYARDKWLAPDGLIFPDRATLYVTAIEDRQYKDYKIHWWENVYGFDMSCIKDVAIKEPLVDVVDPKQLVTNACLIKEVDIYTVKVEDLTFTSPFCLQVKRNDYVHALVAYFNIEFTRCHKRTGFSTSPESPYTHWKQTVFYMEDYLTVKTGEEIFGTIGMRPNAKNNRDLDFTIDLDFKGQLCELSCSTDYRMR

Substance	effect of a mutation on the interaction (anm1_human PRMT1)	effect of a mutation on the interaction (G3BP1)
Nucleoprotein (SARS-CoV-2) (from UniProt P0DTC9) R68K	with no effect	
Nucleoprotein (SARS-CoV-2) (from UniProt P0DTC9) R177K		with no effect
Nucleoprotein (SARS-CoV-2) (from UniProt P0DTC9) R203K	with no effect	
